Positions count from the first letter of the chain named. In names and notes the source's numbering stands. Values belong to the binder of their own block, whether it stands above or below them.
How the values were obtained:
[1] = molecular target: T1, recombinant human LAG-3-his protein (Novoprotein) (human, UniProt P18627 23-450); assay: BLI Octet, FIT-Ig captured, antigen analyte
T1 construct: Bought; also called huLAG-3; not shown: His tag
T1 sequence (looked up): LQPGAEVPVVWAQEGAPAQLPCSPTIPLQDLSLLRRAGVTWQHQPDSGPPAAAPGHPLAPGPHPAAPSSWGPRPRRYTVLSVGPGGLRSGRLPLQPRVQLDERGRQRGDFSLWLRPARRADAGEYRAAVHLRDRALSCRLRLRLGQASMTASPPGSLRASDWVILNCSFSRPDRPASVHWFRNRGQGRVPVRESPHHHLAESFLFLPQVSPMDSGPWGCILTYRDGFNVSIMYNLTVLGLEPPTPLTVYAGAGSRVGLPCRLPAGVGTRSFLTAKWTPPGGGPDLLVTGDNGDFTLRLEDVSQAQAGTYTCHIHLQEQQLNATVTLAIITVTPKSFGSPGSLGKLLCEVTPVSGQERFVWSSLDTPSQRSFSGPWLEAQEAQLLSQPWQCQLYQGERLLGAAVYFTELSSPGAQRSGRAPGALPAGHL

Cyno LAG-3-His = Cyno LAG-3-His (cynomolgus); assay: BLI Octet, FIT-Ig captured, antigen analyte
human PD-1-His protein = molecular target: T2, human PD-1-His protein (human, UniProt Q15116 25-167, limits assumed); assay: BLI Octet, FIT-Ig captured, antigen analyte
T2 construct: also called huPD-1; not shown: His tag

Cyno PD-1-His = Cyno PD-1-His (cynomolgus, UniProt B0LAJ3 25-170); assay: BLI Octet, FIT-Ig captured, antigen analyte
[2] = molecular target: T1, recombinant human LAG-3-his protein …; assay: BLI Octet, Ab on AHC sensor, huLAG-3-his; test group 3
Experimental: All 18 humanized antibodies (Table 34) and a chimeric antibody having the parental murine VH and VL domains (mAb747c) were ranked by dissociation rate constant (koff). Briefly, antibodies were characterized for affinities and binding kinetics by Octet®RED96 biolayer interferometry (Pall ForteBio LLC). Antibodies were captured by Anti-hIgG Fc Capture (AHC) Biosensors (Pall) at a concentration of 100 nM for 30 seconds. Sensors were then dipped into running buffer (1× pH7.2 PBS, 0.05% Tween 20, 0.1% BSA) for 60 seconds to check baseline. Binding was measured by dipping sensors into a single concentration of recombinant human LAG-3-his protein (Novoprotein). Dissociation was followed by dipping sensors into running buffer for 1200 seconds. The association and dissociation curves were fitted to a 1:1 Langmuir binding model using FortéBio Data Analysis software (Pall). In each test group, the off-rates of antibodies were able to be compared with that of mAb747c. The off-rate ratios were calculated by the off-rate of antibody to that of mAb747c of its group and were compared all together. The lower the ratio was, the higher was the affinity of the antibody.

[3] = molecular target: T3, human PD-1 ECD/Fc fusion protein (human); assay: ELISA, coated huPD-1/Fc
T3 construct: also called huPD-1/Fc; HuPD-1 ECD/Fc
Experimental: ELISA plates were incubated overnight at 4° C. with 50 μl of the synthetic human PD-1 ECD/Fc fusion protein targets described above diluted in PBS buffer, pH 7.4, at 1 μg/ml. Plates were washed four times in washing buffer (PBS containing 0.05% Tween 20), and blocked for 1 hour at 37° C. with 200 μl per well blocking buffer (1% BSA in PBS containing 0.05% Tween 20). After blocking buffer was removed, hybridoma supernatant (or later diluted purified mAbs) were added to the wells at 100 μl per well and incubated at 37° C. for 1 hour. The wells were washed four times with washing buffer, and anti-mouse HRP (Sigma) for mouse anti-human PD-1 antibody characterization were diluted 1:5000 and added to the wells at 100 μl per well. The plates were incubated for 1 hour at 37° C. and washed four times in washing buffer. 100 μl of tetramethylbenzidine (TMB) chromogenic solution were added per well. Following color development, the reaction was stopped with 1 Normal HCl and absorbance at 450 nm was measured on a SpectraMax M5e plate reader (Molecular Devices; San Jose, Calif., US).
A binding ELISA was performed in the same way as described in Example 1.3 above. Each purified antibody was 10-fold serially diluted and duplicated. After blocking of the 96-well assay plate with wells containing immobilized PD-1 ECD/Fc fusion protein targets, the purified antibody samples with diluted concentrations were added to wells of assay plates. The HRP-linked anti-mouse IgG antibody (A0168, Sigma) and TMB reagent were used to detect and develop the ELISA signal, which were read on a SpectraMax® M5e plate reader at wavelength of 450 nm. Curves were fitted using GraphPad software, and EC50 were calculated. Similarly, a receptor blocking assay (RBA) was also performed as described in Example 1.5 with titrated, purified antibodies, and top blocking percentages and IC50 values were determined.

[4] = molecular target: T4, human PD-1 expressed on cells (human, UniProt Q15116 25-288); assay: FACS, CHO-K1/huPD-1 cells
T4 construct: whole, on cells; also called CHO-K1/huPD-1; CHO-K1-hPD-1 cells
Experimental: (§1) CHO-K1/huPD-1 or CHO-K1/cynoPD-1 cells, described above, were charged at 2×10⁴ cell per well into 96-well assay round-bottomed assay plates (Cat. No. 3799; Corning) and stained with purified anti-PD-1 antibodies. PD-1 antibodies were detected with AlexaFluor® Donkey anti-Mouse IgG (H+L) Highly Cross-Adsorbed Secondary Antibody, (Cat. No. A21202; Invitrogen), and cell fluorescence was monitored using a flow cytometer. The data were processed by GraphPad software, and EC50 values were calculated.

[5] = molecular target: T5, cynomolgus PD-1 expressed on CHO-K1 cells (cynomolgus monkey, UniProt B0LAJ3 25-288); assay: FACS, CHO-K1/cynoPD-1 cells
T5 construct: also called CHO-K1/cynoPD-1; CHO-K1-cynoPD-1
Experimental: as §1

[6] = molecular target: T3, human PD-1 ECD/Fc fusion protein; assay: SPR Biacore, mAb captured, huPD-1/Fc analyte
Experimental: The binding kinetics of purified antibodies were measured by surface plasmon resonance using a Biacore […] instrument (GE Healthcare) using standard procedures. Briefly, goat anti-mouse IgG Fc polyclonal antibody (Genway) was directly immobilized across a biosensor chip, and antibodies samples were injected over reaction matrices at a flow rate of 5 μl/min. The association and dissociation rate constants, kₒₙ(M⁻¹ s⁻¹) and koff (s⁻¹) respectively, were determined with a continuous flow rate of 30 μl/min. Rate constants were derived by making kinetic binding measurements at five different concentrations of human PD-1/Fc protein. The equilibrium dissociation constant KD (M) of the reaction between antibodies and related target proteins was then calculated from the kinetic rate constants using the formula KD=koff/kₒₙ.

[7] = molecular target: T3, human PD-1 ECD/Fc fusion protein; assay: RBA ELISA on huPD-1/Fc; competitor biotin-huPD-L1/Fc
Experimental: (§2) Supernatants displaying PD-1 specific activity were tested for the ability to block PD-1 binding to its ligands PD-L1 and PD-L2 using immobilized human PD-1 ECD/Fc as a target and PD-L1/Fc and PD-L2/Fc fusion proteins, prepared in the same manner as the PD-1 ECD/Fc binding proteins described in Example 1.3 above. To determine the relative potency of the antibody-containing supernatants, their ability to inhibit the binding of a human PD-1 ligand (PD-L1 or PD-L2) to human PD-1 protein was evaluated. ELISA plates were coated with 100 μl of 50 ng/m of huPD-1/Fc (i.e., the extracellular domain of PD-1 grafted onto the N-terminus of a human Fc region, recovered as a homodimer) in PBS and incubated overnight at 4° C. Plates were washed four times in washing buffer (PBS containing 0.05% Tween 20) and blocked for 1 hour at 37° C. with 200 μl per well of blocking buffer (1% BSA in PBS containing 0.05% Tween 20). After blocking buffer was removed, hybridoma supernatant (50 μl) was added to the wells, mixed with either 50 μl biotinylated human PD-L1/Fc ([…] final concentration) in blocking buffer or 50 μl biotinylated human PD-L2/Fc (final concentration 50 μg/ml) in blocking buffer, then incubated at 37° C. for 1 hour. Signal was developed by adding streptavidin-HRP (Sigma, Cat. No. S2468) (100 μl/well of streptavidin-HRP at 1:5000 dilution) and incubating for 40 minutes at 37° C. and washed four times in washing buffer. 100 μl of TMB solution were added per well. Following color development, the reaction was stopped with 1 Normal HCl and absorbance at 450 nm was measured. […]

[8] = molecular target: T3, human PD-1 ECD/Fc fusion protein; assay: RBA ELISA on huPD-1/Fc; competitor biotin-huPD-L2/Fc
Experimental: as §2

B1: FIT107-1-7b-3 (bispecific antibody, human IgG1, kappa, L234A L235A)
chain 1: not shown
chain 2: EVQLVQSGAEVKKPGATVKLSCTASGFNIKDDYMHWVKQRPEQGLDWIGWIVPRNANTVYASKFQGKATITADTSTNTAYLELSSLRSEDTAVYYCTVYGDYWGQGTTVTVSSASTKGPSVFPLAPSSKSTSGGTAALGCLVKDYFPEPVTVSWNSGALTSGVHTFPAVLQSSGLYSLSSVVTVPSSSLGTQTYICNVNHKPSNTKVDKKVEPKSC
chain 3: not shown
notes: FIT-Ig hexamer; outer anti-LAG-3 (HumAb747V-73 with G55A), inner anti-PD-1 (HumAb713-7)
Kd [1]: 2.28 nM
koff [1]: 0.000328 s⁻¹
kon [1]: 144000 M⁻¹ s⁻¹
Kd (Cyno LAG-3-His): 0.167 nM
koff (Cyno LAG-3-His): 4.7e-05 s⁻¹
kon (Cyno LAG-3-His): 281000 M⁻¹ s⁻¹
Kd (human PD-1-His protein): 8.86 nM
koff (human PD-1-His protein): 0.00103 s⁻¹
kon (human PD-1-His protein): 116000 M⁻¹ s⁻¹
Kd (Cyno PD-1-His): 3.71 nM
koff (Cyno PD-1-His): 0.000919 s⁻¹
kon (Cyno PD-1-His): 248000 M⁻¹ s⁻¹

B2: FIT107-1-6a-2 (bispecific antibody, human IgG1, kappa, L234A L235A)
chain 1: not shown
chain 2: EVQLVESGGGLVQPGGSLRLSCAASGFTFSFYTMSWVRQAPGKGLEWVATISGGGRDTYYPDSVKGRFTISRDNAKNSLYLQMNSLRAEDTAVYYCAGQGGNYLFAYWGQGTLVTVSSASTKGPSVFPLAPSSKSTSGGTAALGCLVKDYFPEPVTVSWNSGALTSGVHTFPAVLQSSGLYSLSSVVTVPSSSLGTQTYICNVNHKPSNTKVDKKVEPKSC
chain 3: DIQMTQSPSSLSASVGDRVTITCRASQEISGYLSWLQQKPGGAIKRLIYAASALDLGVPSRFSGSRSGSDYTLTISSLQPEDFADYYCLQYASYPLTFGQGTKLELKRTVAAPSVFIFPPSDEQLKSGTASVVCLLNNFYPREAKVQWKVDNALQSGNSQESVTEQDSKDSTYSLSSTLTLSKADYEKHKVYACEVTHQGLSSPVTKSFNRGEC
notes: FIT-Ig hexamer; outer anti-PD-1 (HumAb709-8), inner anti-LAG-3 (HumAb747V-72 with G55A)
Kd [1]: 1.02 nM
koff [1]: 0.000117 s⁻¹
kon [1]: 115000 M⁻¹ s⁻¹
Kd (Cyno LAG-3-His): 0.428 nM
koff (Cyno LAG-3-His): 8.17e-05 s⁻¹
kon (Cyno LAG-3-His): 191000 M⁻¹ s⁻¹
Kd (human PD-1-His protein): 1.28 nM
koff (human PD-1-His protein): 0.000239 s⁻¹
kon (human PD-1-His protein): 187000 M⁻¹ s⁻¹
Kd (Cyno PD-1-His): 3.49 nM
koff (Cyno PD-1-His): 0.00107 s⁻¹
kon (Cyno PD-1-His): 306000 M⁻¹ s⁻¹

B3: HumAb747-55 (antibody, human IgG1, V domains shown)
VH: EVQLVQSGAEVKKPGATVKISCKVSDFNIKDDYMHWVQQAPGKGLEWIGWIVPENGNTEYASKFQGRVTITADTSTDTAYLELSSLRSEDTAVYYCTVYGDYWGQGTTVTVSS
VL: DIQMTQSPSSLSASVGDRVTITCRASQEISGYLSWLQQKPGGAIKRLIYAASTLDSGVPSRFSGSRSGSDYTLTISSLEPEDFADYYCLQYASYPLTFGQGTKLELK
notes: humanized mAb747; human IgG1/kappa constant domains
koff [2]: 0.0119 s⁻¹
off-rate ratio to that of mAb747c [2]: 972%

B5: HumAb747-56 (antibody, human IgG1, V domains shown)
VH: B3 VH with I20L, V24A
VL: B3 VL
notes: as for B3
koff [2]: 0.00431 s⁻¹
off-rate ratio to that of mAb747c [2]: 352%

More lines, now with the values ahead:

koff [2]: 0.00405 s⁻¹
off-rate ratio to that of mAb747c [2]: 331%
B4: HumAb747-58 (antibody, human IgG1, V domains shown)
VH: B3 VH with I20L, K23T, V24A, Q38K, V68A, D77N
VL: B3 VL
notes: as for B3

koff [2]: 0.00411 s⁻¹
off-rate ratio to that of mAb747c [2]: 335%
B6: HumAb747-57 (antibody, human IgG1, V domains shown)
VH: B3 VH with I20L, K23T, V24A
VL: B3 VL
notes: as for B3

EC50 [3]: 0.05 nM
EC50 [4]: 0.5 nM
EC50 [5]: 0.7 nM
Kd [6]: 2.45 nM
koff [6]: 0.00085 s⁻¹
kon [6]: 347000 M⁻¹ s⁻¹
IC50 [7]: 3 nM
TOP inhibition (%) [7]: 96%
IC50 [8]: 2.02 nM
TOP inhibition (%) [8]: 95.7%
B7: mAb703 (antibody, V domains shown)
VH: DVQLQESGPGLVKPSQSLSLTCSVTGYSITTGYYWNWIRQFPGNKLEWMGYMSYDGNNNYNPSLKNRISITRDTSKNQFLLRLNSVTTEDTATYFCARDRGTTILGGTMDYWGQGTSVTVS
VL: SIVMTQTPKFLFVSAGDRVTIACKASQSVSNDVAWYQQKPGQSPKLLIYYAFYRYTGVPDRFTGSGYGTDFTFTISTVQAEDLAVYFCQQDYSSPWTFGGGTKLEIK
notes: murine hybridoma anti-PD-1 mAb
